Molecular target: T1, K^18-TAMRA-NPY (5/6-tetramethylrhodamine (TAMRA) on the side chain of Lys18)
T1 construct: neuropeptide Y (NPY) with a TAMRA-carrying lysine at position 18; also called Tam-labeled NPY; TAMRA-labeled peptide ligand; source: synthetic peptide (Fmoc/tBu solid phase, RP-HPLC, purity > 95%)
Experiment: fluorescence polarisation; various concentrations of receptor in small DMPC/DHPC bicelles with 50 nM (K^18-TAMRA)-NPY, 1 h at room temperature, measured at 20 °C; sigmoidal dose-response fit
Conditions: both partners purified

- Kd: 81.8 ± 5.1 nM
B1: Y2R_A202^45.49C,Δ6Cys-IAP (A202^45.49-P1) (receptor)
chain: MGPIGAEADENQTVEEMKVEQYGPQTTPRGELVPDPEPELIDSTKLIEVQVVLILAYASIILLGVIGNSLVIHVVIKFKSMRTVTNFFIANLAVADLLVNTLALPFTLTYTLMGEWKMGPVLCHLVPYAQGLAVQVSTITLTVIALDRHRAIVYHLESKISKRISFLIIGLAWGISALLASPLAIFREYSLIEIIPDFEIVCCTEKWPGEEKSIYGTVYSLSSLLILYVLPLGIISFSYTRIWSKLKNHVSPGAANDHYHQRRQKTTKMLVSVVVVFAVSWLPLHAFQLAVDIDSQVLDLKEYKLIFTVFHIIAMASTFANPLLYGWMNSNYRKAFLSAFRSEQRLDAIHSEVSVTFKAKKNLEVRKNSGPNDSFTEATNV
modifications: cysteine at position 202 labelled with 3-(2-iodacetamido)-proxyl (IAP), thioether-bound spin label side chain P1

— publication PMC10419011, “Dynamics of the Second Extracellular Loop Control Transducer Coupling of Peptide-Activated GPCRs” (International Journal of Molecular Sciences, 2023)
